Measured values published in patent publication US20080292639A1 (Amgen, published 2008).
Several values for one entry are separate records, joined by “and”; a condition that tells them apart may be missing. Equal values may be shown once.

Columns and labels:
[1] = biological target: T1, human Aβ40 fibrils (human, UniProt P05067 672-711); experiment: BIAcore, antibody injected over immobilized Aβ fibrils
T1 construct: domain: Aβ40; Aggregated (fibrillar) form; also called Fibrillar Aβ40; Aβ40 aggregate
Procedure: (§1) Preparation of BIacore Chip Surfaces: Immobilization of Proteins to a Biacore sensor chip (CM5) was performed according to manufacturer's instructions. Briefly, carboxyl groups on the sensor chip surfaces were activated by injecting 60 μL of a mixture containing 0.2 M N-ethyl-N′-(dimethylaminopropyl)carbodiimide (EDC) and 0.05 M N-hydroxysuccinimide (NHS). Specific surfaces were obtained by injecting rProtein G (Pierce), goat anti-mouse Fc (Jackson Immuno Research Lab) or Aβ aggregates diluted in 10 mM acetate, pH 4.0 at concentrations between 5 and 20 μg/mL. Excess reactive groups on the surfaces were deactivated by injecting 60 μL of 1 M ethanolamine. Final immobilized levels were about 10000 resonance units (RU) for the Protein G and anti-mouse Fc surfaces, and 400 RU for the Aβ aggregates surfaces. A blank, mock-coupled reference surface was also prepared on the sensor chips for background subtraction.
(§2) Kinetic analysis of antibodies binding to immobilized Aβ aggregates: Antibodies were diluted in PBS+0.005% P-20+0.1 mg/mL BSA from 100 nM to 0.2 nM. The samples at each concentration were injected over the immobilized Aβ aggregate surfaces, as well as over a blank surface for background subtraction. After a 15-minute dissociation, the surface was regenerated by injecting 8 mM glycine, pH 3.0, and 1 M NaCl for 30 seconds.
(§3) The kinetic analysis assay as described above was repeated using various humanized versions of anti-Aβ antibodies (2.1 chimera, 2.1 B, 2.1 C, 2.1 D, 2.1 E, 2.1 F, 2.1 G, 2.1 E.K5, 2.1E.K5R, 2.1 G.K5, 2.1 G.K5R, 2.1 I.K5R and 2.1 L).

[2] = biological target: T2, human Aβ42 fibrils (human, UniProt P05067 672-713); experiment: as above
T2 construct: domain: Aβ42; Aggregated (fibrillar) form; also called Fibrillar Aβ42; Aβ42 aggregate
Procedure: as §1, §2, §3

[3] = biological target: native amyloid plaques in unfixed brain sections of Tg2576 APP transgenic mice (human, UniProt P05067 672-713, limits assumed); experiment: cell-based or functional assay
[4] = biological target: amyloid plaques in unfixed brain sections of a human AD patient (human, UniProt P05067 672-713); experiment: cell-based or functional assay
[5] = biological target: T1, human Aβ40 fibrils; experiment: ELISA on plate-dried fibrils, time-resolved europium fluorescence
Procedure: (§4) The fibrils (Aβ or collagen) were diluted to 10 μg/ml in water and mixed thoroughly. The solution was aliquoted into the wells of a microtiter plate (Immulon-2; VWR; Cat # 62404-972) at 50 μl per well (resulting in 0.5 μg fibrils/well final). The plate was dried overnight by being placed uncovered in a 37° C. incubator.
(§5) The wells were blocked with 200 μl of blocking solution and incubated for ≧1 hour at room temperature (RT) with shaking. The blocking solution was flicked out and gently dried on a paper towel. 100 μl of primary antibody diluted in PBS containing 10% blocking solution was added to each well and the plate was incubated at RT for 1 hour with shaking. The plate was washed with 5-10× in TBS, pH 7.5+0.05% Tween 20. 100 μl of secondary antibodies (each diluted 1-2,000-fold in PBS) was added to each well and the plate was incubate at RT for 1 hour with shaking. The plate was washed with 5-10× in TBS, pH 7.5+0.05% Tween 20. 100 μl Streptavidin-Europium reagent (1-1,000-fold dilution) was added and the plated was incubated at RT for 45 minutes with shaking. The plate was washed 5-10× in TBS, pH 7.5+0.05% Tween 20. 120 μl Enhance Solution was added and the plate was incubated at RT for 15-30 minutes with shaking. The plate was read on a Victor TRF plate reader (Europium program).

[6] = biological target: T2, human Aβ42 fibrils; experiment: as above
Procedure: as §4, §5

[7] = biological target: T3, human Aβ40 monomer (human, UniProt P05067 672-711); experiment: ELISA on plate-coated monomer, time-resolved europium fluorescence
T3 construct: domain: Aβ40; Monomeric form
Procedure: (§6) The same techniques were used for the coating of the microtiter plate for monomer ELISA. The fibrils Aβ monomer were diluted to 2.5 μg/ml in Coating buffer and mixed thoroughly. The solution was aliquoted into the wells of a microtiter plate [Immulon-2; VWR; Cat.#62404-972] at 100 μl per well. The plate was sealed and incubated overnight at 4° C. The plate was washed 5-10× to remove Aβ coating solution prior to starting the assay.
as §5

[8] = biological target: T4, human Aβ42 monomer (human, UniProt P05067 672-713); experiment: as above
T4 construct: domain: Aβ42; Monomeric form
Procedure: as §6, §5

T2 sequence (P05067 672-713 limits assumed): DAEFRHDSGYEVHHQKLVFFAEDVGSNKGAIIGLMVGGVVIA
Sequence of native amyloid plaques in unfixed brain sections of Tg2576 APP transgenic mice (P05067 672-713 limits assumed): as above
T1 sequence (P05067 672-711 limits assumed): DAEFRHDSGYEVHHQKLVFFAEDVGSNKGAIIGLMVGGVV
T4 sequence (P05067 672-713 limits assumed): as the sequence (P05067 672-713 limits assumed) above
Sequence of amyloid plaques in unfixed brain sections of a human AD patient (P05067 672-713): as the sequence (P05067 672-713 limits assumed) above
T3 sequence (P05067 672-711 limits assumed): as the sequence (P05067 672-711 limits assumed) above

| koff [1] | koff [2] | EC50 (µg/ml), ex vivo phagocytosis [3] | Binder | also measured |
| --- | --- | --- | --- | --- |
| 0.00012 s⁻¹ | 5.5e-05 s⁻¹ | – | 2.1 D (antibody, human IgG1, kappa, Humanized IgG; also called 2.1 D (K5R)) heavy: not shown light: DVVMTQSPLSLPVTLGQPASISCRSSQSIVHSNGNTYLEWYLQRPGQSPQLLIYKVSNRFSGVPDRFSGSGSGTDFTLKISRVEAEDVGVYYCFQGSHVPLTFGGGTKVEIKRTVAAPSVFIFPPSDEQLKSGTASVVCLLNNFYPREAKVQWKVDNALQSGNSQESVTEQDSKDSTYSLSSTLTLSKADYEKHKVYACEVTHQGLSSPVTKSFNRGEC | – |
| 0.00024 s⁻¹ | 0.00019 s⁻¹ | – | 2.1 B (antibody, human IgG1, kappa, V domains shown, Humanized IgG; also called 2.1 B (K5R)) VH: QVTLRESGPALVKPTQTLTLTCTFSGFSLRTSGMGVGWIRQPPGKALEWLAHIWWDDDKSYNPSLKSQLTISKDTSKNQVVLTMTNMDPVDTATYYCARRNYYYDDYFAYWGQGTLVTVSS VL: DVVMTQSPLSLPVTLGQPASISCRSSQSIVHSNGNTYLEWFVQRPGQSPRVLIYKVSNRFSGVPDRFSGSGSGTDFTLKISRVEAEDVGVYYCFQGSHVPLTFGGGTKLEIKR | – |
| < 5e-05 s⁻¹ | < 5e-05 s⁻¹ | 0.69 µg/mL | 2.1 I (also described as 2.1 I K5R) (antibody, human IgG1, kappa, V domains shown, Humanized IgG) VH: QVTLRESGPALVKPTQTLTLTCTFSGFSLRTSGMGVGWIRQPPGKALEWLAHIWWDDDKSYNPSLKSQLTISKDTSKNQVVLTMTNMDPVDTATYYCARRNYYYDDYFAYWGQGTLVTVSS VL: DIVMTQSPLSLPVTPGEPASISCRSSQSIVHSNGNTYLEWYLQKPGQSPQLLIYKVSNRFSGVPDRFSGSGSGTDFTLKISRVEAEDVGVYYCFQGSHVPLTFGGGTKVEIKR | – |
| < 5e-05 s⁻¹ | < 5e-05 s⁻¹ | 1.78 µg/mL | 2.1 G K5 (antibody, human IgG1, kappa, Humanized IgG) heavy: not shown light: DIVMTQSPLSLPVTPGEPASISCRSSQSIVHSNGNTYLEWYLQKPGQSPRLLIYKVSNRFSGVPDRFSGSGSGTDFTLKISRVEAEDVGVYYCFQGSHVPLTFGGGTKVEIKRTVAAPSVFIFPPSDEQLKSGTASVVCLLNNFYPREAKVQWKVDNALQSGNSQESVTEQDSKDSTYSLSSTLTLSKADYEKHKVYACEVTHQGLSSPVTKSFNRGEC | – |
| – | – | 1.22 µg/mL | 2.1 J (antibody, human IgG1, kappa, V domains shown) VH: QVTLKESGPALVKPTQTLTLTCTFSGFSLRTSGMGVGWIRQPPGKALEWLAHIWWDDDKSYNPSLKSQLTISKDTSKNQVVLTMTNMDPVDTATYYCARRNYYYDDYFAYWGQGTLVTVSS VL: DVVMTQSPLSLPVTLGQPASISCRSSQSIVHSNGNTYLEWFQQRPGQSPRRLIYKVSNRFSGVPDRFSGSGSGTDFTLKISRVEAEDVGVYYCFQGSHVPLTFGQGTKLEIKR | – |
| 0.00011 s⁻¹ and < 5e-05 s⁻¹ | < 5e-05 s⁻¹ | 2.23 µg/mL | 2.1 E (antibody, human IgG1, kappa, Humanized IgG; also called 2.1 E (K5R); 2.1E.K5R) heavy: not shown light: DVVMTQSPLSLPVTLGQPASISCRSSQSIVHSNGNTYLEWYLQKPGQSPRLLIYKVSNRFSGVPDRFSGSGSGTDFTLKISRVEAEDVGVYYCFQGSHVPLTFGGGTKVEIKRTVAAPSVFIFPPSDEQLKSGTASVVCLLNNFYPREAKVQWKVDNALQSGNSQESVTEQDSKDSTYSLSSTLTLSKADYEKHKVYACEVTHQGLSSPVTKSFNRGEC | – |
| < 5e-05 s⁻¹ | < 5e-05 s⁻¹ | 3.94 µg/mL | 2.1 E K5 (antibody, Humanized IgG) heavy: not shown light: DVVMTQSPLSLPVTLGQPASISCRSSQSIVHSNGNTYLEWYLQKPGQSPRLLIYKVSNRFSGVPDRFSGSGSGTDFTLKISRVEAEDVGVYYCFQGSHVPLTFGGGTKVEIKRTVAAPSVFIFPPSDEQLKSGTASVVCLLNNFYPREAKVQWKVDNALQSGNSQESVTEQDSKDSTYSLSSTLTLSKADYEKHKVYACEVTHQGLSSPVTKSFNRGEC | – |
| 0.00015 s⁻¹ | 0.00012 s⁻¹ | – | 2.1 F (antibody, human IgG1, kappa, Humanized IgG; also called 2.1 F (K5R)) heavy: not shown light: DIVMTQSPLSLPVTPGEPASISCRSSQSIVHSNGNTYLEWYLQRPGQSPQLLIYKVSNRFSGVPDRFSGSGSGTDFTLKISRVEAEDVGVYYCFQGSHVPLTFGGGTKVEIKRTVAAPSVFIFPPSDEQLKSGTASVVCLLNNFYPREAKVQWKVDNALQSGNSQESVTEQDSKDSTYSLSSTLTLSKADYEKHKVYACEVTHQGLSSPVTKSFNRGEC | – |
| < 5e-05 s⁻¹ | < 5e-05 s⁻¹ | 0.82 µg/mL and 0.73 µg/mL | 2.1 L (antibody, human IgG1, kappa, Humanized IgG) heavy: not shown light: DVLMTQSPLSLPVTLGQPASISCRSSQSIVHSNGNTYLEWYLQRPGQSPKLLIYKVSNRFSGVPDRFSGSGSGTDFTLKISRVEAEDVGVYYCFQGSHVPLTFGAGTKLEIKRTVAAPSVFIFPPSDEQLKSGTASVVCLLNNFYPREAKVQWKVDNALQSGNSQESVTEQDSKDSTYSLSSTLTLSKADYEKHKVYACEVTHQGLSSPVTKSFNRGEC | – |
| 0.00015 s⁻¹ | < 5e-05 s⁻¹ | – | 2.1 C (antibody, human IgG1, kappa, Humanized IgG; also called 2.1 C (K5R)) heavy: not shown light: DVVMTQSPLSLPVTLGQPASISCRSSQSIVHSNGNTYLEWYLQRPGQSPQLLIYKVSNRFSGVPDRFSGSGSGTDFTLKISRVEAEDVGVYYCFQGSHVPLTFGQGTKLEIKRTVAAPSVFIFPPSDEQLKSGTASVVCLLNNFYPREAKVQWKVDNALQSGNSQESVTEQDSKDSTYSLSSTLTLSKADYEKHKVYACEVTHQGLSSPVTKSFNRGEC | – |
| 0.00011 s⁻¹ and < 5e-05 s⁻¹ | < 5e-05 s⁻¹ | 0.94 µg/mL | 2.1 G (also described as 2.1 GK5R) (antibody, human IgG1, kappa, Humanized IgG) heavy: not shown light: DIVMTQSPLSLPVTPGEPASISCRSSQSIVHSNGNTYLEWYLQKPGQSPRLLIYKVSNRFSGVPDRFSGSGSGTDFTLKISRVEAEDVGVYYCFQGSHVPLTFGGGTKVEIKRTVAAPSVFIFPPSDEQLKSGTASVVCLLNNFYPREAKVQWKVDNALQSGNSQESVTEQDSKDSTYSLSSTLTLSKADYEKHKVYACEVTHQGLSSPVTKSFNRGEC | – |
| – | – | 0.84 µg/mL | 2.1 K (antibody, human IgG1, kappa, V domains shown) VH: QVTLKESGPALVKPTQTLTLTCTFSGFSLRTSGMGVGWIRQPPGKGLEWLAHIWWDDDKSYNPSLKSQLTISKDTSKNQVVLTMTNMDPVDTATYYCARRNYYYDDYFAYWGQGTTLTVSS VL: DVLMTQSPLSLPVTLGQPASISCRSSQSIVHSNGNTYLEWYLQRPGQSPKLLIYKVSNRFSGVPDRFSGSGSGTDFTLKISRVEAEDVGVYYCFQGSHVPLTFGAGTKLEIKR | EC50 of phagocytosis by IC-21 cells on human AD brain sections [4]: 0.76 µg/mL |
| 0.00012 s⁻¹ and 5.9e-05 s⁻¹ | 6.9e-05 s⁻¹ and 6.3e-05 s⁻¹ | 0.8 µg/mL | 2.1 chimera (murine/human chimeric form of antibody 2.1) (antibody, V domains shown, also called chimera 2.1; (CHO) 2.1 Chimera (control)) VH: QVTLKESGPGILKPSQTLSLTCSFSGFSLRTSGMGVGWIRQPSGKGLEWLAHIWWDDDKSYNPSLKSQLTISKDTSRNQVFLKITSVDTADTATYYCARRNYYYDDYFAYWGQGTTLTVSS VL: DVLMTQTPLSLPVSLGDQASISCRSSQSIVHSNGNTYLEWYLQKPGQSPKLLIYKVSNRFSGVPDRFSGSGSGTDFTLKISRVEAEDLGVYYCFQGSHVPLTFGAGTKLELK | EC50 (µg/ml), ex vivo phagocytosis; 2.1 Chimera (293) [3]: 1.08 µg/mL; EC50 (µg/ml), ex vivo phagocytosis; 2.1 Chimera (CHO) [3]: 0.7 µg/mL; EC50 [5]: 0.06 nM; EC50 [6]: 0.072 nM; EC50 [7]: 0.031 nM; EC50 [8]: 0.034 nM |
